Source: patent publication US20080262203A1 (published 2008)
Several values for one entry are separate records, joined by “and”; a condition that tells them apart may be missing. Equal entries are not always repeated.

Columns and labels:
human Gro-beta [1] = target: T1, human Gro-beta (human, UniProt P19875 35-107); test: Biacore SPR, BE: mAb amine-coupled;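 also: analytes IL-8, Gro-b and ENA-78 flowed at defined concentrations over the antibody surface, buffer injection used for double referencing, kinetics fitted to a 1:1 binding model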
T1 construct: also called Gro-β; hGROβ
Method: (§1) For experiment designated BE, purified antibodies directly immobilized to the chip by amine coupling was used.
(§2) Defined concentrations of each analyte (IL8, Gro-band ENA-78) are passed over the immobilized or captured antibody surface, a separate capture event is used for each analyte injection. After each injection of analyte the surface is regenerated by injection
(§3) An injection of buffer is also injected over the antibody captured surface and this is used for double referencing. The data is analyzed using the analysis software inherent to the machine, using the 1:1 model of binding.

human ENA-78 [2] = target: T2, human ENA-78 (human, UniProt P42830 37-114, limits assumed); test: Biacore SPR, BE: mAb amine-coupled;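 also: analytes IL-8, Gro-b and ENA-78 flowed at defined concentrations over the antibody surface, buffer injection used for double referencing, kinetics fitted to a 1:1 binding model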
T2 construct: also called hENA-78; CXCL5
Method: as §1, §2, §3

human IL-8 [3] = target: T3, human IL-8 (human, UniProt P10145 28-99, limits assumed); test: Biacore SPR, BE: mAb amine-coupled;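 also: analytes IL-8, Gro-b and ENA-78 flowed at defined concentrations over the antibody surface, buffer injection used for double referencing, kinetics fitted to a 1:1 binding model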
T3 construct: also called hIL-8; hIL8
Method: as §1, §2, §3

human Gro-beta [4] = target: T1, human Gro-beta; test: Biacore SPR, KL: anti-mouse Fc capture
Method: (§4) Supernatant or purified antibody from parental mouse mAb is captured on the anti-mouse IgG-Fc surface. Defined concentrations of each analyte (IL8, Gro-band ENA-78) are passed over the immobilized or captured antibody surface, a separate capture event is used for each analyte injection. After each injection of analyte the surface is regenerated by injection
as §3

human ENA-78 [5] = target: T2, human ENA-78; test: Biacore SPR, KL: anti-mouse Fc capture
Method: as §4, §3

human IL-8 [6] = target: T3, human IL-8; test: Biacore SPR, KL: anti-mouse Fc capture
Method: as §4, §3

human Gro-alpha [7] = target: T4, human Gro-alpha (human, UniProt P09341 35-107); test: TRFIA, chemokine coated on plate, biotinylated anti-mouse IgG and streptavidin-europium detection
T4 construct: also called Gro-α; hGROα
Method: (§5) Briefly, each antigen (human IL-8, Gro-alpha, Gro-beta, Gro-gamma, GCP-2, and ENA-78, and hIL-18 when used as negative control) is individually coated onto a 96-well immunofluorescent plate. The plates are then washed and blocked with a commercially available blocking solution. Blocking solution is emptied and samples containing the mAb are added into each well and incubated for 40 to 60 minutes (this allows the mAb to bind to the target chemokines). The plates are then washed again and a detection Ab is added to each well. […] The detection antibody is conjugated to either europium or biotin. Following another round of washing, to remove unbound detection Ab, a solution of streptavidin-europium was added to biotin detected assays. Streptavidin-europium binds to the biotin allowing for detection. After a final wash to remove unbound streptavidin-europium, or in the case of the humanized MAb assay after the europium conjugate secondary is washed, each well is filled with a chelating detergent solution to activate the europium producing fluorescence. The greater the fluorescence recorded is directly proportionate to the amount of detection Ab present in the well which is directly linked and proportionate to the amount of the chemokine binding mAb.

human Gro-beta [8] = target: T1, human Gro-beta; test: as above
Method: as §5

human Gro-gamma [9] = target: T5, human Gro-gamma (human, UniProt P19876 35-107); test: as above
T5 construct: also called Gro-γ; CXCL3
Method: as §5

human ENA-78 [10] = target: T2, human ENA-78; test: as above
Method: as §5

human IL-8 [11] = target: T3, human IL-8; test: as above
Method: as §5

hIL-18 = target: T6, hIL-18 (Homo sapiens, UniProt Q14116); test: TRFIA, hIL-18 coated on plate, biotinylated anti-human IgG Fab2 reagent and streptavidin-europium detection
T6 construct: Printed on the sheets: 'hIL-18 run as a negative control'; also called human IL-18
Method: as §5

human Gro-alpha [12] = target: T4, human Gro-alpha; test: TRFIA, chemokine coated on plate, biotinylated anti-human IgG Fab2 reagent and streptavidin-europium detection
Method: as §5

human Gro-beta [13] = target: T1, human Gro-beta; test: as above
Method: as §5

human Gro-gamma [14] = target: T5, human Gro-gamma; test: as above
Method: as §5

human ENA-78 [15] = target: T2, human ENA-78; test: as above
Method: as §5

human GCP-2 [16] = target: T7, human GCP-2 (human, UniProt P80162 38-114, limits assumed); test: as above
T7 construct: also called hGCP-2; CXCL6
Method: as §5

human IL-8 [17] = target: T3, human IL-8; test: as above
Method: as §5

human Gro-alpha [18] = target: T4, human Gro-alpha; test: TRFIA, chemokine coated on plate, europium anti-human IgG detection; antibody concentration not given
human Gro-gamma [19] = target: T5, human Gro-gamma; test: as above
Method: as §5

human GCP-2 [20] = target: T7, human GCP-2; test: as above
Method: as §5

human ENA-78 [21] = target: T2, human ENA-78; test: Biacore SPR, Protein A capture;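 also: purified antibody captured on Protein A immobilised on a CM5 chip, chemokine analytes flowed over at defined concentrations, buffer injection for double referencing, kinetics fitted with a 1:1 binding model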
From the text: (§6) A Protein A capture method was used to generate kinetics for the humanised and chimeric constructs as follows:
(§7) Protein A is immobilised on a CM5 chip by primary amine coupling in accordance with the manufactures instructions. Purified humanised or chimeric antibody is captured on the Protein A surface. After capture defined concentrations of each analyte (IL8, Gro-β and ENA-78) are passed over the antibody captured surface, a separate capture event is used for each analyte injection. […] An injection of buffer is also injected over the antibody captured surface and this is used for double referencing. The data is analysed using the analysis software inherent to the machine, using the 1:1 model of binding.

human IL-8 [22] = target: T3, human IL-8; test: Biacore SPR, Protein A capture;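 also: purified antibody captured on Protein A immobilised on a CM5 chip, chemokine analytes flowed over at defined concentrations, buffer injection for double referencing, kinetics fitted with a 1:1 binding model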
From the text: as §6, §7

human Gro-beta [23] = target: T1, human Gro-beta; test: Biacore SPR, BE: mAb amine-coupled; BE: mAb amine-coupled;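 as to Kd: analytes IL-8, Gro-b and ENA-78 flowed at defined concentrations over the antibody surface, buffer injection used for double referencing, kinetics fitted to a 1:1 binding model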
Method: as §1, §2, §3

human Gro-beta [24] = target: T1, human Gro-beta; test: Biacore SPR, KL: anti-mouse Fc capture; KL: anti-mouse Fc capture
Method: as §4, §3

Binder | Kd (human Gro-beta [1]) [nM] | kon (human Gro-beta [1]) [M⁻¹ s⁻¹] | Kd (human ENA-78 [2]) [nM] | koff (human ENA-78 [2]) [s⁻¹] | kon (human ENA-78 [2]) [M⁻¹ s⁻¹] | Kd (human IL-8 [3]) [nM] | koff (human IL-8 [3]) [s⁻¹] | kon (human IL-8 [3]) [M⁻¹ s⁻¹] | Kd (human ENA-78 [5]) [nM] | koff (human ENA-78 [5]) [s⁻¹] | kon (human ENA-78 [5]) [M⁻¹ s⁻¹] | Kd (human IL-8 [6]) [nM] | koff (human IL-8 [6]) [s⁻¹] | kon (human IL-8 [6]) [M⁻¹ s⁻¹] | binding result (human Gro-alpha [18]) | binding result (human Gro-gamma [19]) | binding result (human GCP-2 [20]) | other results
mouse monoclonal antibody 81.1 (antibody, IgG2a, V domains shown, Murine hybridoma mAb) VH: EVQLQQSGPELEKPGASVKISCKASGYSFTVYGMNWVRQSNGKSLEWIGNFDPYFSVTSYNQKFQDKATLTVDKSSSTAYMQLKNLTSEDSAVYFCARGSWETIFAYWGQGTLVTVSA VL: QAVVTQESALTTSPGETVTLTCRSSTGAVTTSNYANWVQEKPDHLFTGLIGGTNNRAPGVPARFSGSLIGDKAALTITGAQTEDEAIYFCALWYSNHVFGGGTKLTVLQ | 0.0898 | 5.44e+06 | 0.0239 | 3.94e-06 | 165000 | 55.5 | 0.108 | 1.95e+06 | 0.616 | 0.000376 | 611000 | 4.8 | 0.00932 | 1.95e+06 | – | – | – | koff (human Gro-beta [1]): 0.000489 s⁻¹; Kd (human Gro-beta [4]): 0.113 nM; koff (human Gro-beta [4]): 0.000312 s⁻¹; kon (human Gro-beta [4]): 2.76e+06 M⁻¹ s⁻¹
mouse monoclonal antibody 656.35 (antibody, IgG2a, V domains shown, Murine hybridoma mAb) VH: QVQLQQSGAELVRPGTSVTISCKASGYTFTNYWIVWVKQRPGHGLEWIGDLYSGGGYTFYSENFKGKATLTADTSSSTAYMHLISLTSEDSAVYFCARSGYDRTWFAHWGQGSLVTVSA VL: DIKMTQSPSSMSASLGERVTITCQASQDIESYLSWYQQKPWKSPKTLIYYATRLADGVPSRFSGSGSGQDYSLTISSLESDDTATYYCLQHGESPPTFGAGTKLELKR | 0.111 | 1.32e+07 | 0.271 | 0.000796 | 2.94e+06 | 0.0839 | 0.000687 | 8.19e+06 | 1.74 | 0.00187 | 1.07e+06 | 0.964 | 0.00148 | 1.53e+06 | – | – | – | koff (human Gro-beta [1]): 0.00146 s⁻¹; Kd (human Gro-beta [4]): 0.526 nM; koff (human Gro-beta [4]): 0.00201 s⁻¹; kon (human Gro-beta [4]): 3.82e+06 M⁻¹ s⁻¹; EC50 (read off the curve) (human Gro-alpha [7]): ~0.03 mg/L; EC50 (read off the curve) (human Gro-beta [8]): ~0.02 mg/L; EC50 (read off the curve) (human Gro-gamma [9]): ~0.02 mg/L; EC50 (read off the curve) (human ENA-78 [10]): ~0.02 mg/L; EC50 (read off the curve) (human IL-8 [11]): ~0.03 mg/L
Chimera Antibody (HcLc) made from 656.35 (antibody, human IgG1, kappa, V domains shown, also called the Chimera Antibody; chimera (HcLc)) VH: QVQLQQSGAELVRPGTSVTISCKASGYTFTNYWIVWVKQRPGHGLEWIGDLYSGGGYTFYSENFKGKATLTADTSSSTAYMHLISLTSEDSAVYFCARSGYDRTWFAHWGQGSLVTVSS VL: DIKMTQSPSSMSASLGERVTITCQASQDIESYLSWYQQKPWKSPKTLIYYATRLADGVPSRFSGSGSGQDYSLTISSLESDDTATYYCLQHGESPPTFGAGTKLELKR | – | – | – | – | – | – | – | – | – | – | – | – | – | – | – | – | – | binding result (hIL-18): no binding (tested: 1000 ng/ml); EC50 (read off the curve) (human Gro-alpha [12]): ~0.05 mg/L; EC50 (read off the curve) (human Gro-beta [13]): ~0.04 mg/L; EC50 (read off the curve) (human Gro-gamma [14]): ~0.04 mg/L; EC50 (read off the curve) (human ENA-78 [15]): ~0.04 mg/L; EC50 (read off the curve) (human GCP-2 [16]): ~0.04 mg/L; EC50 (read off the curve) (human IL-8 [17]): ~0.07 mg/L
humanized penta-specific antibody construct H0M0 (antibody, human IgG1, kappa, V domains shown, H0 mature heavy chain with M0 mature light chain) VH: QVQLVQSGAEVKKPGASVKVSCKASGYTFTNYWIVWVRQAPGQGLEWMGDLYSGGGYTFYSENFKGRVTMTRDTSTSTVYMELSSLRSEDTAVYYCARSGYDRTWFAHWGQGTLVTVSS VL: EIVLTQSPATLSLSPGERATLSCQASQDIESYLSWYQQKPGQAPRLLIYYATRLADGIPARFSGSGSGTDFTLTISSLEPEDFAVYYCLQHGESPPTFGQGTKLEIKR | – | – | – | – | – | – | – | – | – | – | – | – | – | – | binds | binds | binds | –
humanized penta-specific antibody construct H0L7 (antibody, human IgG1, kappa, V domains shown, H0 mature heavy chain with L7 mature light chain) VH: QVQLVQSGAEVKKPGASVKVSCKASGYTFTNYWIVWVRQAPGQGLEWMGDLYSGGGYTFYSENFKGRVTMTRDTSTSTVYMELSSLRSEDTAVYYCARSGYDRTWFAHWGQGTLVTVSS VL: DIQMTQSPSSLSASVGDRVTITCQASQDIESYLSWYQQKPGKAPKLLIYYATRLADGVPSRFSGSGSGTDFTLTISSLQPEDFATYYCLQHGESPPTFGQGTKLEIKR | – | – | – | – | – | – | – | – | – | – | – | – | – | – | binds | binds | binds | –
humanized penta-specific antibody construct H0L10 (antibody, human IgG1, kappa, V domains shown, H0 mature heavy chain with L10 mature light chain) VH: QVQLVQSGAEVKKPGASVKVSCKASGYTFTNYWIVWVRQAPGQGLEWMGDLYSGGGYTFYSENFKGRVTMTRDTSTSTVYMELSSLRSEDTAVYYCARSGYDRTWFAHWGQGTLVTVSS VL: DIQMTQSPSSLSASVGDRVTITCQASQDIESYLSWYQQKPGKAPKLLIYYATRLADGVPSRFSGSGSGQDYTLTISSLQPEDFATYYCLQHGESPPTFGQGTKLEIKR | – | – | – | – | – | – | – | – | – | – | – | – | – | – | binds | binds | binds | Kd (human ENA-78 [21]): 0.0899 nM and 0.0722 nM and 0.0742 nM and 0.0613 nM
humanized penta-specific antibody construct H0L8 (antibody, human IgG1, kappa, V domains shown, H0 mature heavy chain with L8 mature light chain) VH: QVQLVQSGAEVKKPGASVKVSCKASGYTFTNYWIVWVRQAPGQGLEWMGDLYSGGGYTFYSENFKGRVTMTRDTSTSTVYMELSSLRSEDTAVYYCARSGYDRTWFAHWGQGTLVTVSS VL: DIQMTQSPSSLSASVGDRVTITCQASQDIESYLSWYQQKPGKAPKLLIYYATRLADGVPSRFSGSGSGTDFTFTISSLQPEDIATYYCLQHGESPPTFGQGTKLEIKR | – | – | – | – | – | – | – | – | – | – | – | – | – | – | binds | binds | binds | Kd (human ENA-78 [21]): 0.1 nM and 0.0941 nM and 0.0912 nM and 0.0755 nM; koff (human ENA-78 [21]): 0.000288 s⁻¹ and 0.000266 s⁻¹ and 0.000269 s⁻¹ and 0.000248 s⁻¹; kon (human ENA-78 [21]): 2.88e+06 M⁻¹ s⁻¹ and 2.82e+06 M⁻¹ s⁻¹ and 2.95e+06 M⁻¹ s⁻¹ and 3.29e+06 M⁻¹ s⁻¹; Kd (human IL-8 [22]): 0.188 nM and 0.143 nM and 0.175 nM and 0.152 nM; koff (human IL-8 [22]): 0.00111 s⁻¹ (2×) and 0.00113 s⁻¹ and 0.00119 s⁻¹; kon (human IL-8 [22]): 5.9e+06 M⁻¹ s⁻¹ and 7.89e+06 M⁻¹ s⁻¹ and 6.8e+06 M⁻¹ s⁻¹ and 7.3e+06 M⁻¹ s⁻¹
mouse monoclonal antibody 197.2 (antibody, IgG2a, V domains shown, Murine hybridoma mAb) VH: EFQLQQSGPELVKPGASVKISCKASGYSFTDYNMNWVKQSNGKSLEWIGVINPKYGTTSYNQKFKGKATLTVDQSSNTAYMQLSSLTSEDSAVYHCARGMGLLFGMDYWGQGTSVTVSS VL: DIVMTQSPSSLSVSAGEKVTMSCKSSQSLLNSGNQKNYLAWYQQKPGQPPKLLIYGASTRKSGVPDRFTGSGSGTDFTLTISSVQAEDLAVYYCQNDHSFPCTFGGGTKLEIKR | < 0.00962 | 1.04e+06 | 10.1 | 0.00302 | 301000 | 0.69 | 0.000499 | 723000 | 9 | 0.00269 | 299000 | 5.89 | 0.00369 | 627000 | – | – | – | koff (human Gro-beta [23]): < 1e-05 s⁻¹; Kd (human Gro-beta [24]): 0.639 nM; koff (human Gro-beta [24]): 0.000993 s⁻¹; kon (human Gro-beta [24]): 1.55e+06 M⁻¹ s⁻¹
